The target in one test is NCOA2 wild-type peptide. The experiment in a line: FP.
In the next test the target is PRDM14 wild-type peptide. The experiment in a line: FP.

Kd data for two molecules are collected here from paper PMC12102759 (2025).

By Kd is commonly meant the constant that tells how readily two partners part at equilibrium. A high value points to a looser complex.

B1: SARS‐CoV‐2 NSP3 UBl1 domain (819–925), tag cleaved, for FP (domain or fragment)
chain: APTKVTFGDDTVIEVQGYKSVNITFELDERIDKVLNEKCSAYTVELGTEVNEFACVVADAVIKTLQPVSELLTPLGIDLDEWSMATYYLFDESGEFKLASHMYCSFY
The molecule B1 displayed a Kd with NCOA2 wild-type peptide of 39 µM.

B2: SARS‐CoV‐2 NSP3 SUD‐M domain (1356–1493), tag cleaved, for FP (domain or fragment)
chain: LPSIISNEKQEILGTVSWNLREMLAHAEETRKLMPVCVETKAIVSTIQRKYKGIKIQEGVVDYGARFYFYTSKTTVASLINTLNDLNETLVTMPLGYVTHGLNLEEAARYMRSLKVPATVSVSSPDAVTAYNGYLTSS
The molecule B2 returned a Kd with PRDM14 wild-type peptide of 74 µM.
